According to patent US20220041744A1 (INNATE PHARMA, published 2022):

B1: H2L2 (antibody, human IgG1, V domains shown)
VH: QIQLVQSGAEVKKPGASVKVSCKASGYAFTSYNMYWVRQAPGQSLEWMGYIDPYNGGSSYNLTFKGRVTITVDKSASTAYMELSSLRSEDTAVYYCARGYGNYKAWFAYWGQGTLVTVSS
VL: DIQMTQSPSSLSASVGDRVTITCKASQSVSNDVAWYQQKPGKAPKLLIYYASTRYTGVPDRFSGSGYGTDFTFTISSLQPEDIATYYCQQDYSSLTFGQGTKLEIK
B2: H0L4 (antibody, human IgG1, V domains shown)
VH: QVQLVQSGAEVKKPGASVKVSCKASGYTFTSYNMYWVRQAPGQRLEWMGYIDPYNGGSSYNLTFKGRVTITRDTSASTAYMELSSLRSEDTAVYYCARGYGNYKAWFAYWGQGTLVTVSS
VL: DVQMTQSPSSLSASVGDRVTITCKASQSVSNDVAWYQQKPGKAPKLLIYYASTRYTGVPDRFSGSGYGTDFTFTISSLQPEDIATYFCQQDYSSLTFGQGTKLEIK
notes: H0 VH limits counted by alignment with H1
B3: H0L0 (antibody, human IgG1, V domains shown)
VH: QVQLVQSGAEVKKPGASVKVSCKASGYTFTSYNMYWVRQAPGQRLEWMGYIDPYNGGSSYNLTFKGRVTITRDTSASTAYMELSSLRSEDTAVYYCARGYGNYKAWFAYWGQGTLVTVSS
VL: DIQMTQSPSSLSASVGDRVTITCKASQSVSNDVAWYQQKPGKAPKLLIYYASTRYTGVPSRFSGSGSGTDFTFTISSLQPEDIATYYCQQDYSSLTFGQGTKLEIK
notes: variable-domain limits counted by alignment with H1 and L1
B4: H3L4 (antibody, human IgG1, V domains shown)
VH: QIQLVQSGAEVKKPGASVKVSCKASGYAFTSYNMYWVRQAPGQSLEWIGYIDPYNGGSSYNLTFKGKATITVDKSASTAYMELSSLRSEDTAVYYCARGYGNYKAWFAYWGQGTLVTVSS
VL: DVQMTQSPSSLSASVGDRVTITCKASQSVSNDVAWYQQKPGKAPKLLIYYASTRYTGVPDRFSGSGYGTDFTFTISSLQPEDIATYFCQQDYSSLTFGQGTKLEIK
B5: H3L3 (antibody, human IgG1, V domains shown)
VH: QIQLVQSGAEVKKPGASVKVSCKASGYAFTSYNMYWVRQAPGQSLEWIGYIDPYNGGSSYNLTFKGKATITVDKSASTAYMELSSLRSEDTAVYYCARGYGNYKAWFAYWGQGTLVTVSS
VL: DVQMTQSPSSLSASVGDRVTITCKASQSVSNDVAWYQQKPGKAPKLLIYYASTRYTGVPDRFSGSGYGTDFTFTISSLQPEDIATYYCQQDYSSLTFGQGTKLEIK
B6: H0L3 (antibody, human IgG1, V domains shown)
VH: QVQLVQSGAEVKKPGASVKVSCKASGYTFTSYNMYWVRQAPGQRLEWMGYIDPYNGGSSYNLTFKGRVTITRDTSASTAYMELSSLRSEDTAVYYCARGYGNYKAWFAYWGQGTLVTVSS
VL: DVQMTQSPSSLSASVGDRVTITCKASQSVSNDVAWYQQKPGKAPKLLIYYASTRYTGVPDRFSGSGYGTDFTFTISSLQPEDIATYYCQQDYSSLTFGQGTKLEIK
notes: as for B2
B7: H1L3 (antibody, human IgG1, V domains shown)
VH: QIQLVQSGAEVKKPGASVKVSCKASGYTFTSYNMYWVRQAPGQRLEWMGYIDPYNGGSSYNLTFKGRVTITRDKSASTAYMELSSLRSEDTAVYYCARGYGNYKAWFAYWGQGTLVTVSS
VL: DVQMTQSPSSLSASVGDRVTITCKASQSVSNDVAWYQQKPGKAPKLLIYYASTRYTGVPDRFSGSGYGTDFTFTISSLQPEDIATYYCQQDYSSLTFGQGTKLEIK
B8: H4L3 (antibody, human IgG1, V domains shown)
VH: QIQLVQSGAEVKKPGASVKVSCKASGYAFASYNMYWVRQAPGQSLEWIGYIDPYNGGSSYNLTFKGKATLTVDKSASTAYMELSSLRSEDTAVYYCARGYGNYKAWFAYWGQGTLVTVSS
VL: DVQMTQSPSSLSASVGDRVTITCKASQSVSNDVAWYQQKPGKAPKLLIYYASTRYTGVPDRFSGSGYGTDFTFTISSLQPEDIATYYCQQDYSSLTFGQGTKLEIK
B9: H4L4 (antibody, human IgG1, V domains shown)
VH: QIQLVQSGAEVKKPGASVKVSCKASGYAFASYNMYWVRQAPGQSLEWIGYIDPYNGGSSYNLTFKGKATLTVDKSASTAYMELSSLRSEDTAVYYCARGYGNYKAWFAYWGQGTLVTVSS
VL: DVQMTQSPSSLSASVGDRVTITCKASQSVSNDVAWYQQKPGKAPKLLIYYASTRYTGVPDRFSGSGYGTDFTFTISSLQPEDIATYFCQQDYSSLTFGQGTKLEIK
B10: H2L4 (antibody, human IgG1, V domains shown)
VH: QIQLVQSGAEVKKPGASVKVSCKASGYAFTSYNMYWVRQAPGQSLEWMGYIDPYNGGSSYNLTFKGRVTITVDKSASTAYMELSSLRSEDTAVYYCARGYGNYKAWFAYWGQGTLVTVSS
VL: DVQMTQSPSSLSASVGDRVTITCKASQSVSNDVAWYQQKPGKAPKLLIYYASTRYTGVPDRFSGSGYGTDFTFTISSLQPEDIATYFCQQDYSSLTFGQGTKLEIK
B11: H0L2 (antibody, human IgG1, V domains shown)
VH: QVQLVQSGAEVKKPGASVKVSCKASGYTFTSYNMYWVRQAPGQRLEWMGYIDPYNGGSSYNLTFKGRVTITRDTSASTAYMELSSLRSEDTAVYYCARGYGNYKAWFAYWGQGTLVTVSS
VL: DIQMTQSPSSLSASVGDRVTITCKASQSVSNDVAWYQQKPGKAPKLLIYYASTRYTGVPDRFSGSGYGTDFTFTISSLQPEDIATYYCQQDYSSLTFGQGTKLEIK
notes: as for B2
B12: H3L2 (antibody, human IgG1, V domains shown)
VH: QIQLVQSGAEVKKPGASVKVSCKASGYAFTSYNMYWVRQAPGQSLEWIGYIDPYNGGSSYNLTFKGKATITVDKSASTAYMELSSLRSEDTAVYYCARGYGNYKAWFAYWGQGTLVTVSS
VL: DIQMTQSPSSLSASVGDRVTITCKASQSVSNDVAWYQQKPGKAPKLLIYYASTRYTGVPDRFSGSGYGTDFTFTISSLQPEDIATYYCQQDYSSLTFGQGTKLEIK
B13: H4L2 (antibody, human IgG1, V domains shown)
VH: QIQLVQSGAEVKKPGASVKVSCKASGYAFASYNMYWVRQAPGQSLEWIGYIDPYNGGSSYNLTFKGKATLTVDKSASTAYMELSSLRSEDTAVYYCARGYGNYKAWFAYWGQGTLVTVSS
VL: DIQMTQSPSSLSASVGDRVTITCKASQSVSNDVAWYQQKPGKAPKLLIYYASTRYTGVPDRFSGSGYGTDFTFTISSLQPEDIATYYCQQDYSSLTFGQGTKLEIK
B14: H1L4 (antibody, human IgG1, V domains shown)
VH: QIQLVQSGAEVKKPGASVKVSCKASGYTFTSYNMYWVRQAPGQRLEWMGYIDPYNGGSSYNLTFKGRVTITRDKSASTAYMELSSLRSEDTAVYYCARGYGNYKAWFAYWGQGTLVTVSS
VL: DVQMTQSPSSLSASVGDRVTITCKASQSVSNDVAWYQQKPGKAPKLLIYYASTRYTGVPDRFSGSGYGTDFTFTISSLQPEDIATYFCQQDYSSLTFGQGTKLEIK
B15: H2L3 (antibody, human IgG1, V domains shown)
VH: QIQLVQSGAEVKKPGASVKVSCKASGYAFTSYNMYWVRQAPGQSLEWMGYIDPYNGGSSYNLTFKGRVTITVDKSASTAYMELSSLRSEDTAVYYCARGYGNYKAWFAYWGQGTLVTVSS
VL: DVQMTQSPSSLSASVGDRVTITCKASQSVSNDVAWYQQKPGKAPKLLIYYASTRYTGVPDRFSGSGYGTDFTFTISSLQPEDIATYYCQQDYSSLTFGQGTKLEIK
B16: H4L0 (antibody, human IgG1, V domains shown)
VH: QIQLVQSGAEVKKPGASVKVSCKASGYAFASYNMYWVRQAPGQSLEWIGYIDPYNGGSSYNLTFKGKATLTVDKSASTAYMELSSLRSEDTAVYYCARGYGNYKAWFAYWGQGTLVTVSS
VL: DIQMTQSPSSLSASVGDRVTITCKASQSVSNDVAWYQQKPGKAPKLLIYYASTRYTGVPSRFSGSGSGTDFTFTISSLQPEDIATYYCQQDYSSLTFGQGTKLEIK
notes: L0 VL limits counted by alignment with L1
B17: H0L1 (antibody, human IgG1, V domains shown)
VH: QVQLVQSGAEVKKPGASVKVSCKASGYTFTSYNMYWVRQAPGQRLEWMGYIDPYNGGSSYNLTFKGRVTITRDTSASTAYMELSSLRSEDTAVYYCARGYGNYKAWFAYWGQGTLVTVSS
VL: DIQMTQSPSSLSASVGDRVTITCKASQSVSNDVAWYQQKPGKAPKLLIYYASTRYTGVPSRFSGSGYGTDFTFTISSLQPEDIATYYCQQDYSSLTFGQGTKLEIK
notes: as for B2

biological target: T1, human recombinant soluble CD73 protein (human, UniProt P21589 27-547); assay: SPR, Ab captured on Protein A, soluble huCD73 as analyte
T1 construct: also called huCD73; rhCD73
T1 sequence: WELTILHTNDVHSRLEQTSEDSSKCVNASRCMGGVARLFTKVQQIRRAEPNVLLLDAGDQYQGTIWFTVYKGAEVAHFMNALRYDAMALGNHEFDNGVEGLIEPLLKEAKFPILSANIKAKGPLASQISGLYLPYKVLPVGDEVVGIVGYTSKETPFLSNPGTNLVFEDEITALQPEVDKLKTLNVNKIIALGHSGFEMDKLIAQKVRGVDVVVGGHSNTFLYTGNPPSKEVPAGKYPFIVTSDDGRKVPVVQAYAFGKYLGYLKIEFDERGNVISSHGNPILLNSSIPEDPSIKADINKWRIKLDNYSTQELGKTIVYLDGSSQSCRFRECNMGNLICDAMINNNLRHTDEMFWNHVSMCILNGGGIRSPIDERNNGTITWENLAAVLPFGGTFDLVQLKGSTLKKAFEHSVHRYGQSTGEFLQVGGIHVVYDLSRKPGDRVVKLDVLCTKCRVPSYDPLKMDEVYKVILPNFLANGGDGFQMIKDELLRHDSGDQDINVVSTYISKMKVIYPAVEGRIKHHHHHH
Experimental: SPR measurements were performed on a Biacore™ T200 apparatus at 25° C. Protein-A (GE Healthcare) was immobilized on a Sensor Chip CM5 (GE Healthcare). […] The entire sensorgram sets were fitted using the 1:1 kinetic binding model. Bivalent affinities and kinetic association and dissociation rate constants are calculated.
The binding of the antibodies in Table 2 of Example 1 were tested for binding to human soluble dimeric CD73 proteins and were cloned, produced and purified. Affinity and association and dissociation constants of humanized variants were assessed by SPR analysis.

In order of rising Kd:
1. B2  0.6 nM
2. B6  0.6 nM
3. B8  0.7 nM
4. B11  0.7 nM
5. B14  0.7 nM
6. B7  0.8 nM
7. B10  0.9 nM
8. B13  0.9 nM
9. B17  0.9 nM
10. B4  1 nM
11. B15  1 nM
12. B5  1.1 nM
13. B9  1.2 nM
14. B1  1.3 nM
15. B12  1.4 nM
16. B16  7.8 nM
17. B3  65 nM

In order of rising koff:
1. B14  6.77e-05 s⁻¹
2. B13  7.12e-05 s⁻¹
3. B9  7.14e-05 s⁻¹
4. B7  7.2e-05 s⁻¹
5. B8  7.69e-05 s⁻¹
6. B2  8.65e-05 s⁻¹
7. B4  8.91e-05 s⁻¹
8. B6  9.49e-05 s⁻¹
9. B5  0.000105 s⁻¹
10. B10  0.000106 s⁻¹
11. B11  0.000119 s⁻¹
12. B12  0.000122 s⁻¹
13. B15  0.000123 s⁻¹
14. B17  0.000127 s⁻¹
15. B1  0.000155 s⁻¹
16. B16  0.00123 s⁻¹
17. B3  0.00882 s⁻¹

In order of rising kon:
1. B9  60100 M⁻¹ s⁻¹
2. B13  77500 M⁻¹ s⁻¹
3. B12  86600 M⁻¹ s⁻¹
4. B4  90400 M⁻¹ s⁻¹
5. B7  92600 M⁻¹ s⁻¹
6. B5  95700 M⁻¹ s⁻¹
7. B14  98200 M⁻¹ s⁻¹
8. B8  110000 M⁻¹ s⁻¹
9. B1  118000 M⁻¹ s⁻¹
10. B10  120000 M⁻¹ s⁻¹
11. B15  120000 M⁻¹ s⁻¹
12. B3  136000 M⁻¹ s⁻¹
13. B2  137000 M⁻¹ s⁻¹
14. B17  144000 M⁻¹ s⁻¹
15. B16  158000 M⁻¹ s⁻¹
16. B11  168000 M⁻¹ s⁻¹
17. B6  170000 M⁻¹ s⁻¹
